Data taken from the DeepSol protein solubility set.

Assay: soluble on expression in E. coli; label from the status in PepcDB or PDB records

Row | Sequence | soluble on expression in E. coli
1 | MGSSHHHHHHSSGLVPRGSHMILTLTLNPSVDISYPLTALKLDDVNRVQEVSKTAGGKGLNVTRVLAQVGEPVLASGFIGGELGQFIAKKLDHADIKHAFYNIKGETRNCIAILHEGQQTEILEQGPEIDNQEAAGFIKHFEQLLEKVEAVAISGSLPKGLNQDYYAQIIERCQNKGVPVILDCSGATLQTVLENPYKPTVIKPNISELYQLLNQPLDESLESLKQAVSQPLFEGIEWIIVSLGAQGAFAKHNHTFYRVNIPTISVLNPVGSGDSTVAGITSAILNHENDHDLLKKANTLGMLNAQEAQTGYVNLNNYDDLFNQIEVLEV | soluble
2 | MGSSHHHHHHSSGLVPRGSHMKIAFVIRKDCSRCARIAESIIDLLPKDWEIIYDHEAAKFLNSKGLDISQISADVIITIGGDGTVLRTLQMAKGPVLGINMGGLGFLTELEVDEVGSAIFKLIKGQYRITESMKLKVEINGDRVEDCTNEAVVHTERIARIRQFKIYIDGHFLSTMKSDGIIVATPIGSSSYSSSAGGPLLLPTLKGMVISYLAPYSSRLKPVVVTSDSTVEIKIAGRDQECILILDGQREYTVRSGDTVRISRSENSARFLSFRESVYDRIRDKVIKHVVN | soluble
3 | MGSSHHHHHHSSGLVPRGSHMQQLPKAIIIGVRKGGTRALLEMLNLHPAVVKASQEIHFFDNDENYGKGIEWYRKKMPFSYPQQITIEKSPAYFITEEVPERIYKMNSSIKLLIIVREPTTRAISDYTQVLEGKERKNKTYYKFEKLAIDPNTCEVNTKYKAVRTSIYTKHLERWLKYFPIEQFHVVDGDRLITEPLPELQLVEKFLNLPPRISQYNLYFNATRGFYCLRFNEIFNKCLAGSKGRIHPEVDPSVITKLRKFFHPFNQKFYQITGRTLNWP | soluble
4 | MGSSHHHHHHSSGLVPRGSHMRLCHPCPWEWTFFQGNCYFMSNSQRNWHDSITACKEVGAQLVVIKSAEEQNFLQLQSSRSNRFTWMGLSDLNQEGTWQWVDGSPLLPSFKQYWNRGEPNNVGEEDCAEFSGNGWNDDKCNLAKFWICKKSAASCSRDEEQFLSPAPATPNPPPA | soluble
5 | MGSSHHHHHHSSGLVPRGSHMSGSGSGSGTALTPSYLKDDDGRSLILRGFNTASSAKSAPDGMPQFTEADLAREYADMGTNFVRFLISWRSVEPAPGVYDQQYLDRVEDRVGWYAERGYKVMLDMHQDVYSGAITPEGNSGNGAGAIGNGAPAWATYMDGLPVEPQPRWELYYIQPGVMRAFDNFWNTTGKHPELVEHYAKAWRAVADRFADNDAVVAYDLMNEPFGGSLQGPAFEAGPLAAMYQRTTDAIRQVDQDTWVCVAPQAIGVNQGLPSGLTKIDDPRAGQQRIAYCPHLYPLPLDIGDGHEGLARTLTDVTIDAWRANTAHTARVLGDVPIILGEFGLDTTLPGARDYIERVYGTAREMGAGVSYWSSDPGPWGPYLPDGTQTLLVDTLNKPYPRAVAGTPTEWSSTSDRLQLTIEPDAAITAPTEIYLPEAGFPGDVHVEGADVVGWDRQSRLLTVRTPADSGNVTVTVTPAA | soluble
6 | MGSSHHHHHHSSGLVPRGSPQPPADEQPEPRTRRRAYLWCKEFLPGAWRGLREDEFHISVIRGGLSNMLFQCSLPDTTATLGDEPRKVLLRLYGAILQMRSCNKEGSEQAQKENEFQGAEAMVLESVMFAILAERSLGPKLYGIFPQGRLEQFIPSRRLDTEELSLPDISAEIAEKMATFHGMKMPFNKEPKWLFGTMEKYLKEVLRIKFTEESRIKKLHKLLSYNLPLELENLRSLLESTPSPVVFCHNDCQEGNILLLEGRENSEKQKLMLIDFEYSSYNYRGFDIGNHFCEWMYDYSYEKYPFFRANIRKYPTKKQQLHFISSYLPAFQNDFENLSTEEKSIIKEEMLLEVNRFALASHFLWGLWSIVQAKISSIEFGYMDYAQARFDAYFHQKRKLGV | soluble
7 | MGSSHHHHHHSSGLVPRGSVCMTEIATTSGARSVGLLSVGAYRPERVVTNDEICQHIDSSDEWIYTATGIKTRRFAADDESAASMATEACRRALSNAGLSAADIDGVIVTTNTHFLQTPPAAPMVAASLGAKGILGFDLSAGCAGFGYALGAAADMIRGGGAATMLVVGTEKLSPTIDMYDAGNCFIFADGAAAVVVGETPFQGIGPTVAGSDGEQADAIRQDIDWITFAQNPSGPRPFVRLEGPAVFRWAAFKMGDVGRRAMDAAGVRPDQIDVFVPHQANSRINELLVKNLQLRPDAVVANDIEHTGNTSAASIPLAMAELLTTGAAKPGDLALLIGYGAGLSYAAQVVRMPKG | soluble
8 | MGSSHHHHHHSSGRENLYFQGHMTLTSIGPANRMARSAETHPLTWRLREDAQPVWLEEYQSKDGYAAARKALTQMAQDDIVQTVKDSGLKGRGGAGFPTGVKWGLMPKDESLNIRYLLCNADEMEPNTWKDRMLMEQLPHLLVEGMLISARALKAYRGYIFLRGEYVDAARNLNRAIDEAKAAGLLGKNILGSGFDFELFVHTGAGRYICGEETALINSLEGRRANPRSKPPFPAAVGVWGKPTCVNNVETLCNVPAIVGNGVDWYKTLARPGSEDMGTKLMGFSGKVKNPGLWELPFGVSARELFEDYAGGMRDGFQLKAWQPGGAGTGFLLPEHLDAQMFAGGIAKVGTRMGTGLAMAVDDSINMVSLLRNMEEFFARESCGWCTPCRDGLPWSVKLLRALERGEGQPGDLETLEQLVNFLGPGKTFCAHAPGAVEPLGSALKYFRAEFEAGISRQPSAAPRPATVGA | soluble
9 | MGSSHHHHHHSSGRENLYFQGMTLKAGIVGIGMIGSDHLRRLANTVSGVEVVAVCDIVAGRAQAALDKYAIEAKDYNDYHDLINDKDVEVVIITASNEAHADVAVAALNANKYVFCEKPLAVTAADCQRVIEAEQKNGKRMVQIGFMRRYDKGYVQLKNIIDSGEIGQPLMVHGRHYNASTVPEYKTPQAIYETLIHEIDVMHWLLNEDYKTVKVYFPRQSSLVTTLRDPQLVVMETTSGINIVVEVFVNCQYGYDIHCDVTGEKGMAELPTVASAAVRKAAKYSTDILVDWKQRFIDAYDIEFQDFFDRLNAGLPPAGPTSWDGYLAAVTADACVKSQETGNTEIVELPSKPDFYK | soluble
10 | MGSSQSTPKVQDANADAERIRKAQHSMAAAGGGSQCPLTPEQRAAASGENCGAGGACPVGADKASINPLNNELEHPNQKPAPDQPFALPTKREKSTIPKAGTETETWTYPSPQMFWNAMLKKGWRWQDDSLSKSDMENIISIHNANNEEAWREVLKWENLLHPECAEPKLKSFKGDAKNLSPRARFRNLFLGYDLPFDRHDWIVDRCGTKQVQYVIDYYDGGAVDPSSKLFTILDVRPAVNDIGNIWDRMVVAYWRFKFETLGFTPSLPIPPTEGHNVNH | not soluble
11 | MGSSSSFSSSSSKLLFRQLFENESSTFTYLLADVSHPDKPALLIDPVDKTVDRDLKLIDELGLKLIYAMNTHVHADHVTGTGLLKTKLPGVKSVISKASGSKADLFLEPGDKVSIGDIYLEVRATPGHTAGCVTYVTGEGADQPQPRMAFTGDAVLIRGCGRTDFQEGSSDQLYESVHSQIFTLPKDTLIYPAHDYKGFEVSTVGEEMQHNPRLTKDKETFKTIMSNLNLSYPKMIDVAVPANMVCGLQDVPSQAN | soluble
12 | MGTPVVWEGNIGNPPEHKSFPNGNNEPRQLLRLNVMFDNSIPDGSGGYKDRGGFWANVEWWHPDAERFAQLFSKGMRVVVTGRAIMDTWKDKETGDDVWALKVEANRVAILPHRVNQVTMTQSNNTGQRQNAQQNNRPERQQNSAQQPGQHTDDLSHYGNGFDDDIPVLEHHHHHH | soluble
13 | MGTRDDEYDYLFKVVLIGDSGVGKSNLLSRFTRNEFNLESKSTIGVEFATRSIQVDGKTIKAQIWDTAGQERYRAITSAYYRGAVGALLVYDIAKHLTYENVERWLKELRDHADSNIVIMLVGNKSDLRHLRAVPTDEARAFAEKNGLSFIETSALDSTNVEAAFQTILTEIYRIVSQKQMSDRRENDMSPSNNVVPIHVPPTTENKPKVQCCQNI | soluble
14 | MGTTVEGGRSGPRYVQVADEIVQQIRAGVLKPGDMVPSESEMVDRYGVSGGTIRKAMVEVRASGLVETRHGKGSIVKDRPPVRHRSSDRFRRSLRQGGKAAYLAESEQSGATAKVSVLYIGPMEAPADAAQRLGVPAGTQVLARRRLYFRNGTPVETASSYLPWDVVKDIPELFAENPGGGGIYARLEDHGHEFAEFVETLQARPASKAEATELALSPGAPVVHLIREARTAAGLVVEVCDTLMAADQFVFEYRIPAAD | not soluble
15 | MGVDPSVKVEYKAPTVTYDQVGFMSKSTLMTHEQLISVRSAKVRQSVKITVKEQIPKSHDDKIKVSIVSPEIKSSSSSKNSSPPDARLNKDHNLEWCVILAPGQHRLLPVRYTIEHPASESLSYKFN | not soluble
16 | MGVISAYAVVHERAAIIDPGTAKGAEIILDEIDRSWNVEYICPTHIHIDHGGGAARLAKALDAKIIVHPRGVKHVVNPEKLWEASKAVLGEVAEIYGKPESIDESKVIAVEDEQEFDLGGERLKVFHAPGHAPHMLVYYLTNSKVLFPADAVGMCFGGVVFPLTPPPFDADAALKTLKRLKGLKVDYVAFTHYGVVEGDWPIAKLEHHHHHH | not soluble
17 | MGVKRKKMGKVAGFTEWTAEDLEAFRARWPIGTAQRLALELYQWTGARCVDVIRLGPQMVGRDGVLTYVQQKTGNPAHVPWTCPAFGLEEQRADLMRCLPVGSPVYMLTEYGKPRTQKGVSQWFSAAAREAGLESRTAHGLRKYRMNALAEHGASVLVMQSWVGHTTLLEVQEYTRRADRRRVISGGHPVKRDPAGAAAALEHHHHHH | soluble
18 | MGVLQATVLWAGPIPRVGNPPNWTSPSSSGLLFFYFFFTSTSDFTMEAPPAPKKARRSEVSRMQDESVLCDDDEEDSPFTLYFVDLPNEPTVKEIRNLEELFKTAKAVGIMPEWIDSDALEDLQKSEDFFVLPCFRGKLFRKLQARKLKVYGPPIVLESIEDGKQLPQWNHPVYSSVFQDVKISFTGLNLTKKQELYEKIGWMCGVVGDALYHETTHLVTEKAEQTEKYKAAVNNSIKLMRIGWIDDLWETSQTTMGRFSALSRDSVNSYALRVFEGLEMAITSIDGADRTNFIQLIEDHGGKVPGTMSKTRFFFSVFHYKICSFLGALLSIQMMLPEKAFYRKYHPKYLTADHIRSSTPKRDANVTESVPDISSIAGHGGRLGTSSFNSSIPQMDQSYQHQSGSSFISFASTSKIPSSTFTNNDSTLGRSGSGVRDGISTPIARVQTTPLIRYPTTQTASVQNIADVISDPIDELRKNIDDGLGDLFENCMFYICGVDESRMEKWRRFLNETGATRVAKFTSATNVVVVSPNQQERITIRKHLHQEDIAIVTVGWVVECVKQRKMISVEGYQWTENTADESQSSQSQLQPVRPQPLPRTSSKSTIPYGKTSGPSSTSTQVGIFSYHTYCVHCSVDQEVSDDLKEKIPLNGGKLMDDPDYAEFVIFGHSGPMHELISFDAVVTDFYIYASIGNNRFLNRSCYPLFVPLPRPPILIFNQRGFQLKCKDPFLRDRVRDIIEDNGGRIVEQLEPKDFIIMIDAEDNPPRYHSRTLDFSWIIASVSRCRLQPIDNFLYKNNTRPLSGFQRDDDLWEKCSREKNNSTQEMEVEVEDRHRVQDLPVETGNGNIGDMTTPYVNPYFPDLRKPYTMNLQLDGVSEYINNMESPARETQETLTTSRVGSILRKAVVNTGRNEDFEDEPSTCHLIRPRVPENRKTVSSTPVLVRDVNRSMRYMPMDESFADQNQEHEDLNRRYAMNPRFLLSVSNMDPQRAADLQETIMKLGGTIEREFNKDVTHLIASNMQRAPKVLCSIAAGKWCLTPDYVTKSAEVGRWLDEKSFEWTREKLLACSKKNESLKERDSRKVSENLAAVCGLWRQRVAEMPVTFSVSMENRQNGAFSDWRCVIHLDDKRAGVFSSILEAGGAIVHSISEYVEVSTLKPNIVLASKEFPWNPQSAVLLKRDNIPIYVFDILYDFLIDRDNLNRTKFWHNVYMKA | not soluble
